For 51 variants, abundance fitness results are on record in the Human Domainome abundance scans (Beltran et al. 2025).

± gives the uncertainty stated by the source.

B1: Homeobox protein SIX6, residues 134 to 184; numbered along this chain, O95475 (parent)
chain: CFKERTRHLLREWYLQDPYPNPSKKRELAQATGLTPTQVGNWFKNRRQRDR

The variants in the data set derive from B1. Description: abundance fitness (aPCA) (normalised: wild type 0, dead -1); higher = more abundant; growth selection in yeast, the domain comes from the species named. The conditions noted are these: Homo sapiens.
On to CFKERTRHLLREWYLQDPYPNPSKKRELAQATGLTPTQVGNWFKSRRQRDR [N45S], for which the abundance fitness is -0.42 ± 0.076.

Consider CFKERTRHLLREWYLQDPYPNPSKKRELAQATGLTPTQVGNWFKQRRQRDR [N45Q], for which the abundance fitness was -0.303 ± 0.06.

As for CFKERTRHLLREWYLQDPYPNPSKKRELAQATGLTPTQVGNWFKVRRQRDR [N45V], the abundance fitness is -0.612 ± 0.14.

Turning to CFKERTRHLLREWYLQDPYPNPSKKRELAQATGLTPTQVGNWFKGRRQRDR [N45G], the abundance fitness is -0.481 ± 0.054.

Turning to CFKERTRHLLREWYLQDPYPNPSKKRELAQATGLTPTQVGNWFKDRRQRDR [N45D], the abundance fitness is -0.261 ± 0.2.

As to CFKERTRHLLREWYLQDPYPNPSKKRELAQATGLTPTQVGNWFKTRRQRDR [N45T], the abundance fitness was -0.423 ± 0.11.

For CFKERTRHLLREWYLQDPYPNPSKKRELAQATGLTPTQVGNWFKMRRQRDR [N45M], the abundance fitness was -0.386 ± 0.1.

Turning to CFKERTRHLLREWYLQDPYPNPSKKRELAQATGLTPTQVGNWFKKRRQRDR [N45K], the abundance fitness was -0.13 ± 0.054.

Take CFKERTRHLLREWYLQDPYPNPSKKRELAQATGLTPTQVGNWFKIRRQRDR [N45I]: the abundance fitness was -0.394 ± 0.062.

Regarding CFKERTRHLLREWYLQDPYPNPSKKRELAQATGLTPTQVGNWFKRRRQRDR [N45R], the abundance fitness is -0.062 ± 0.055.

Take CFKERTRHLLREWYLQDPYPNPSKKRELAQATGLTPTQVGNWFKCRRQRDR [N45C]: the abundance fitness was -0.39 ± 0.092.

Turning to CFKERTRHLLREWYLQDPYPNPSKKRELAQATGLTPTQVGNWFKERRQRDR [N45E], the abundance fitness was -0.266 ± 0.086.

With CFKERTRHLLREWYLQDPYPNPSKKRELAQATGLTPTQVGNWFKWRRQRDR [N45W], the abundance fitness is -0.535 ± 0.061.

With CFKERTRHLLREWYLQDPYPNPSKKRELAQATGLTPTQVGNWFKARRQRDR [N45A], the abundance fitness was -0.378 ± 0.077.

CFKERTRHLLREWYLQDPYPNPSKKRELAQATGLTPTQVGNWFKHRRQRDR [N45H]: the abundance fitness is -0.123 ± 0.11.

With CFKERTRHLLREWYLQDPYPNPSKKRELAQATGLTPTQVGNWFKFRRQRDR [N45F], the abundance fitness was -0.712 ± 0.23.

CFKERTRHLLREWYLQDPYPNPSKKRELAQATGLTPTQVGNWFKLRRQRDR [N45L]: the abundance fitness is -0.401 ± 0.069.

On to CFKERTRHLLREWYLQDPYPNPSKKRELAQATGLTPTQVGNWFYNRRQRDR [K44Y], for which the abundance fitness was -0.604 ± 0.25.

For CFKERTRHLLREWYLQDPYPNPSKKRELAQATGLTPTQVGNWFGNRRQRDR [K44G], the abundance fitness was -0.68 ± 0.07.

Take CFKERTRHLLREWYLQDPYPNPSKKRELAQATGLTPTQVGNWFANRRQRDR [K44A]: the abundance fitness is -0.195 ± 0.067.

Take CFKERTRHLLREWYLQDPYPNPSKKRELAQATGLTPTQVGNWFTNRRQRDR [K44T]: the abundance fitness is -0.398 ± 0.079.

For CFKERTRHLLREWYLQDPYPNPSKKRELAQATGLTPTQVGNWFLNRRQRDR [K44L], the abundance fitness was -0.525 ± 0.056.

Consider CFKERTRHLLREWYLQDPYPNPSKKRELAQATGLTPTQVGNWFINRRQRDR [K44I], for which the abundance fitness is -0.37 ± 0.11.

For CFKERTRHLLREWYLQDPYPNPSKKRELAQATGLTPTQVGNWFSNRRQRDR [K44S], the abundance fitness is -0.282 ± 0.071.

Turning to CFKERTRHLLREWYLQDPYPNPSKKRELAQATGLTPTQVGNWFDNRRQRDR [K44D], the abundance fitness is -0.57 ± 0.19.

CFKERTRHLLREWYLQDPYPNPSKKRELAQATGLTPTQVGNWFQNRRQRDR [K44Q]: the abundance fitness is -0.271 ± 0.055.

With CFKERTRHLLREWYLQDPYPNPSKKRELAQATGLTPTQVGNWFCNRRQRDR [K44C], the abundance fitness is -0.361 ± 0.053.

Consider CFKERTRHLLREWYLQDPYPNPSKKRELAQATGLTPTQVGNWFFNRRQRDR [K44F], for which the abundance fitness is -0.438 ± 0.15.

On to CFKERTRHLLREWYLQDPYPNPSKKRELAQATGLTPTQVGNWFVNRRQRDR [K44V], for which the abundance fitness was -0.543 ± 0.064.

With CFKERTRHLLREWYLQDPYPNPSKKRELAQATGLTPTQVGNWFWNRRQRDR [K44W], the abundance fitness was -0.634 ± 0.091.

Take CFKERTRHLLREWYLQDPYPNPSKKRELAQATGLTPTQVGNWFENRRQRDR [K44E]: the abundance fitness is -0.009 ± 0.052.

In the case of CFKERTRHLLREWYLQDPYPNPSKKRELAQATGLTPTQVGNWFRNRRQRDR [K44R], the abundance fitness was -0.112 ± 0.043.

In the case of CFKERTRHLLREWYLQDPYPNPSKKRELAQATGLTPTQVGNWFPNRRQRDR [K44P], the abundance fitness is -0.957 ± 0.24.

On to CFKERTRHLLREWYLQDPYPNPSKKRELAQATGLTPTQVGNWFMNRRQRDR [K44M], for which the abundance fitness is -0.204 ± 0.09.

Take CFKERTRHLLREWYLQDPYPNPSKKRELAQATGLTPTQVGNWLKNRRQRDR [F43L]: the abundance fitness was -0.904 ± 0.1.

As for CFKERTRHLLREWYLQDPYPNPSKKRELAQATGLTPTQVGNWMKNRRQRDR [F43M], the abundance fitness is -0.94 ± 0.29.

Take CFKERTRHLLREWYLQDPYPNPSKKRELAQATGLTPTQVGNWAKNRRQRDR [F43A]: the abundance fitness was -1.01 ± 0.17.

Turning to CFKERTRHLLREWYLQDPYPNPSKKRELAQATGLTPTQVGNWKKNRRQRDR [F43K], the abundance fitness is -0.881 ± 0.11.

With CFKERTRHLLREWYLQDPYPNPSKKRELAQATGLTPTQVGNWHKNRRQRDR [F43H], the abundance fitness was -0.858 ± 0.31.

As for CFKERTRHLLREWYLQDPYPNPSKKRELAQATGLTPTQVGNWWKNRRQRDR [F43W], the abundance fitness was -0.926 ± 0.17.

Take CFKERTRHLLREWYLQDPYPNPSKKRELAQATGLTPTQVGNWTKNRRQRDR [F43T]: the abundance fitness was -0.927 ± 0.11.

In the case of CFKERTRHLLREWYLQDPYPNPSKKRELAQATGLTPTQVGNWEKNRRQRDR [F43E], the abundance fitness was -0.821 ± 0.11.

Take CFKERTRHLLREWYLQDPYPNPSKKRELAQATGLTPTQVGNWYKNRRQRDR [F43Y]: the abundance fitness was -1.13 ± 0.44.

As for CFKERTRHLLREWYLQDPYPNPSKKRELAQATGLTPTQVGNWDKNRRQRDR [F43D], the abundance fitness is -0.775 ± 0.14.

Consider CFKERTRHLLREWYLQDPYPNPSKKRELAQATGLTPTQVGNWSKNRRQRDR [F43S], for which the abundance fitness is -0.872 ± 0.12.

With CFKERTRHLLREWYLQDPYPNPSKKRELAQATGLTPTQVGNWGKNRRQRDR [F43G], the abundance fitness was -0.577 ± 0.079.

Take CFKERTRHLLREWYLQDPYPNPSKKRELAQATGLTPTQVGNWIKNRRQRDR [F43I]: the abundance fitness was -0.649 ± 0.32.

On to CFKERTRHLLREWYLQDPYPNPSKKRELAQATGLTPTQVGNWCKNRRQRDR [F43C], for which the abundance fitness is -0.893 ± 0.21.

For CFKERTRHLLREWYLQDPYPNPSKKRELAQATGLTPTQVGNWRKNRRQRDR [F43R], the abundance fitness was -0.92 ± 0.066.

As to CFKERTRHLLREWYLQDPYPNPSKKRELAQATGLTPTQVGNWNKNRRQRDR [F43N], the abundance fitness is -0.882 ± 0.17.

For the variant CFKERTRHLLREWYLQDPYPNPSKKRELAQATGLTPTQVGNWFKNARQRDR [R46A], the abundance fitness was -0.17 ± 0.071.
